Consider 1 molecule from paper PMC10425327.

For this experiment, the target named is T1, complement C5a receptor (mouse (endogenous in Peyer's patch LysoDCs)) (UniProt P30993).
T1 sequence: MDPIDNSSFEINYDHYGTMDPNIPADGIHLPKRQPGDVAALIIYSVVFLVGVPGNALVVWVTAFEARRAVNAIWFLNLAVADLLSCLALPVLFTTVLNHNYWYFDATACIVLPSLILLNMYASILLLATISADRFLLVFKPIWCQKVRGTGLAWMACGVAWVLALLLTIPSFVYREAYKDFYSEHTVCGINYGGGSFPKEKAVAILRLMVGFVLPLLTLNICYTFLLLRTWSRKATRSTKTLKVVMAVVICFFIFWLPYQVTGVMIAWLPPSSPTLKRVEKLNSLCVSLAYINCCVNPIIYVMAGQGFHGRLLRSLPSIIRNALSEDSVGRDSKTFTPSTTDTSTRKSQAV

B1: Co1 peptide (peptide)
peptide: SFHQLPARSPLP
B1 registered a CCL2 (MCP-1) in the culture supernatant of C5aR+ LysoDCs treated with Co1 peptide (10 uM, 24 h), against untreated C5aR+ LysoDCs and Co1-treated C5aR- LysoDCs above 2 fold; a CCL3 (MIP-1alpha) in the culture supernatant of C5aR+ LysoDCs treated with Co1 peptide (10 uM, 24 h), against untreated C5aR+ LysoDCs and Co1-treated C5aR- LysoDCs above 2 fold.
